Our source for the MFI values is US20110286916A1.

Experiment [1] addresses endogenous human Notch1 on 293 FlpIn (TREx) parental, LS-1034 and BxPC3 cells (human) (UniProt P46531). In words: FACS, LS-1034 and BxPC3 cells. For orientation: A flow cytometer gives signals particle by particle.
Experiment [2] has as its target human full-length Notch1 with C-terminal FLAG tag, stably expressed on 293 FlpIn (TREx) cells (human) (UniProt P46531). In words: FACS, 293 FlpIn (TREx) cells expressing Notch1.

In the case of IgG isotype control antibody, the MFI in experiment [1] and in experiment [2] was 9 each time.
